# From patent publication US20260193348A1 (ANTENGENE BIOLOGICS, published 2026)
# Where a chain is given by its changes, count along the chain named. Names may count otherwise.
# B1: Bis-108+147-S31R.H (bispecific antibody)
# heavy 1: not shown
# heavy 2: EVQLVQSGAEVKKPGASVKVSCKASGYTFTSYVIHWVRQAPGQGLEWMGYFNPYNDGTKYNEEFKGRVTLTSDKSTSTAYMELRSLRSDDTAVYYCARGGVRRYFDVWGQGTTVTVSSASTKGPSVFPLAPSSKSTSGGTAALGCLVKDYFPEPVTVSWNSGALTSGVHTFPAVLQSSGLYSLSSVVTVPSSSLGTQTYICNVNHKPSNTKVDKKVEPKSCGGGGSGGGGSEVQLVQSGAEVKKPGSSVKVSCKASGYTFTRYWMHWVRQAPGQCLEWMGNINPSSGATNYNEKFKSRVTLTVDKSTSTAYMELSSLRSEDTAVYYCARDRSSQYYFDYWGQGTTVTVSSGGGGSGGGGSGGGGSGGGGSDIVMTQSPDSLAVSLGERATINCKSSQSLLNSRSRKNYLAWYQQKPGQPPKLLIYWASTRESGVPDRFSGSGSGTDFTLTISSLQAEDVAVYYCTQSYTLRTFGCGTKVEIKGGGGSGGGGSDKTHTCPPCPAPEAAGGPSVFLFPPKPKDTLMISRTPEVTCVVVDVSHEDPEVKFNWYVDGVEVHNAKTKPREEQYNSTYRVVSVLTVLHQDWLNGKEYKCKVSNKALPAPIEKTISKAKGQPREPQVCTLPPSREEMTKNQVSLSCAVKGFYPSDIAVEWESNGQPENNYKTTPPVLDSDGSFFLVSKLTVDKSRWQQGNVFSCSVMHEALHNHYTQKSLSLSPGK
# light: DIQMTQSPSSLSASVGDRVTITCRASQDIGSNLNWLQQKPGKAIKRLIYATFGLDSGVPSRFSGSRSGTDFTLTISSLQPEDFATYYCQQYASFPYTFGGGTKVEIKRTVAAPSVFIFPPSDEQLKSGTASVVCLLNNFYPREAKVQWKVDNALQSGNSQESVTEQDSKDSTYSLSSTLTLSKADYEKHKVYACEVTHQGLSSPVTKSFNRGEC
# notes: Fab-scFv-Fab format
# B2: Bis-108+147-S32R.L (bispecific antibody)
# heavy 1: not shown
# heavy 2: B1 heavy 2 with R262S, S402R
# light: B1 light
# notes: Fab-scFv-Fab format
# B3: Bis-40E9-L2H6 (bispecific antibody)
# heavy 1: not shown
# heavy 2: EVQLVQSGAEVKKPGASVKVSCKASGYTFTSYVIHWVRQAPGQGLEWMGYFNPYNDGTKYNEEFKGRVTLTSDKSTSTAYMELRSLRSDDTAVYYCARGGVRRYFDVWGQGTTVTVSSASTKGPSVFPLAPSSKSTSGGTAALGCLVKDYFPEPVTVSWNSGALTSGVHTFPAVLQSSGLYSLSSVVTVPSSSLGTQTYICNVNHKPSNTKVDKKVEPKSCGGGGSGGGGSEVQLVQSGAEVKKPGSSVKVSCKASGYTFSSYVIHWVRQAPGQCLEWMGYINPYNDVIKYNEKFKGRVTLTSDKSTSTAYMELSSLRSEDTAVYYCARESFSSYDGFAYWGQGTLVTVSSGGGGSGGGGSGGGGSGGGGSEIVLTQSPDFQSVTPKEKVTITCSASSSVSYMHWYQQKPDQSPKRLIYDTSKLASGVPSRFSGSGSGTDFTLTINSLEAEDAATYYCQQWSSNPPTFGCGTKVEIKGGGGSGGGGSDKTHTCPPCPAPEAAGGPSVFLFPPKPKDTLMISRTPEVTCVVVDVSHEDPEVKFNWYVDGVEVHNAKTKPREEQYNSTYRVVSVLTVLHQDWLNGKEYKCKVSNKALPAPIEKTISKAKGQPREPQVCTLPPSREEMTKNQVSLSCAVKGFYPSDIAVEWESNGQPENNYKTTPPVLDSDGSFFLVSKLTVDKSRWQQGNVFSCSVMHEALHNHYTQKSLSLSPGK
# light: B1 light
# notes: Fab-scFv-Fab format with LALA mutations
# B4: Bis-40E9-L2H9 (bispecific antibody)
# heavy 1: not shown
# heavy 2: B3 heavy 2 with N286S, S333Y
# light: B1 light
# notes: as for B3
# B5: Bis-40E9-L2H10 (bispecific antibody)
# heavy 1: not shown
# heavy 2: B3 heavy 2 with E330D, F332Y, S333Y, D336E, G337A
# light: B1 light
# notes: Fab-scFv-Fab format with LALA mutations; copies: 1 + 1 + 2
# B6: Bis-40E9-L5H7 (bispecific antibody)
# heavy 1: not shown
# heavy 2: B3 heavy 2 with Y285G, D287G, E330D, F332Y, S462R, N464S
# light: B1 light
# notes: as for B5
# B7: Bis-40E9-L2H9 (bispecific antibody)
# VH: EVQLVQSGAEVKKPGASVKVSCKASGYTFTSYVIHWVRQAPGQGLEWMGYFNPYNDGTKYNEEFKGRVTLTSDKSTSTAYMELRSLRSDDTAVYYCARGGVRRYFDVWGQGTTVTVSS
# VL: DIQMTQSPSSLSASVGDRVTITCRASQDIGSNLNWLQQKPGKAIKRLIYATFGLDSGVPSRFSGSRSGTDFTLTISSLQPEDFATYYCQQYASFPYTFGGGTKVEIK
# scFv: EVQLVQSGAEVKKPGSSVKVSCKASGYTFSSYVIHWVRQAPGQCLEWMGYINPYSDVIKYNEKFKGRVTLTSDKSTSTAYMELSSLRSEDTAVYYCARESFYSYDGFAYWGQGTLVTVSSGGGGSGGGGSGGGGSGGGGSEIVLTQSPDFQSVTPKEKVTITCSASSSVSYMHWYQQKPDQSPKRLIYDTSKLASGVPSRFSGSGSGTDFTLTINSLEAEDAATYYCQQWSSNPPTFGCGTKVEIK
# notes: L234A/L235A
# B8: Bis-40E9-L2H10 (bispecific antibody)
# VH: B7 VH
# VL: B7 VL
# scFv: B7 scFv with S55N, E99D, F101Y, D105E, G106A
# notes: L234A/L235A
# B9: Bis-40E9-L2H11 (bispecific antibody)
# VH: B7 VH
# VL: B7 VL
# scFv: B7 scFv with S55N, E99D, F101Y, D105R, G106A
# notes: L234A/L235A
# B10: Bis-40E9-L2H16 (bispecific antibody)
# VH: B7 VH
# VL: B7 VL
# scFv: B7 scFv with S31D, S55N, E99D, F101Y
# notes: L234A/L235A
# B11: Bis-40E9-L5H7 (bispecific antibody)
# VH: B7 VH
# VL: B7 VL
# scFv: B7 scFv with Y54G, S55N, D56G, E99D, F101Y, Y102S, S231R, N233S
# notes: L234A/L235A
# B12: Bis-40E9-L2H6 (bispecific antibody)
# VH: B7 VH
# VL: B7 VL
# scFv: B7 scFv with S55N, Y102S
# notes: L234A/L235A
# B13: Bis-40E9-L2H7 (bispecific antibody)
# VH: B7 VH
# VL: B7 VL
# scFv: B7 scFv with Y54G, S55N, D56G, E99D, F101Y, Y102S
# notes: L234A/L235A
# Biological target: T1, GPRC5D on MM.1S cells (human, UniProt Q9NZD1 1-345)
# Assay: cell-based or functional assay
# T1 sequence (Q9NZD1 whole entry): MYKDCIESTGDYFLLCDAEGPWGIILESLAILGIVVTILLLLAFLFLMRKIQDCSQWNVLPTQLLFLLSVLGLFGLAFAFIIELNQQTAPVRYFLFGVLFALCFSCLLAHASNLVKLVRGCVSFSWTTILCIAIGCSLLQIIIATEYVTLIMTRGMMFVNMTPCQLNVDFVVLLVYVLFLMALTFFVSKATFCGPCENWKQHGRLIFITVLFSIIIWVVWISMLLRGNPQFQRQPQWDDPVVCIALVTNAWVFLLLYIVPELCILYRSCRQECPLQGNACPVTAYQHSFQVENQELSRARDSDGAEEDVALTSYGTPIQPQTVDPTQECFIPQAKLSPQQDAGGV
Binder,IC50 of T-cell dependent cytotoxicity on MM.1S cells [nM],"Top (%) target cell killing, MM.1S cells [%]"
B1,4.43,159
B2,0.54,99

# Biological target: T1, GPRC5D on MM.1S cells
# Assay: FACS on MM.1S cells
# Experimental: To evaluate the binding affinity of the generated chimeric bispecific antibody to T cells, the isolated CD3⁺ T cells were stained by antibodies and the binding affinity was determined by FACS analysis. The protocol of FACS analysis is described as follows: [0785] (a) CD3⁺ T cells were isolated from normal donors. [0786] (b) The isolated CD3⁺ T cells were washed by Staining Buffer (PBS+1% BSA) in round bottom 96-well plate. […] (c) Antibody dilutions were added to each well and mixed with the CD3+ T cells, incubated at 4 degrees for 1 hour. […] (d) Cells were spined at 300 g for 3 minutes, then the supernatants were discarded. [0789] (e) Cells were washed with Staining Buffer. [0790] (f) Step (d) was repeated, and the cells were incubated with secondary antibody in Staining Buffer for 0.5 hours at 4 degrees. [0791] (g) After incubation, step (d)-(e) were repeated. [0792] (h) Cells were resuspended in Staining Buffer and fluorescence signals were recorded by flow cytometry.
# The binding affinities of the generated humanized Fab-scFv-Fab bispecific antibodies to MM.1S were evaluated by FACS analysis. The protocol for FACS analysis is identical to that described in Example 1.2, except that MM.1S were used in this example.
Binder,Ratio of EC50 (relative to ATG-Bis-40E9) [ratio],Ratio of Top MFI (relative to ATG-Bis-40E9) [ratio]
B3,0.824,0.877
B4,0.926,0.874
B5,1.15,1.02
B6,1.14,0.989

# Biological target: T1, GPRC5D on MM.1S cells
# Assay: cell-based or functional assay
# Remark: another data set of the same source
Binder,"Ratio of Top RLU (relative to ATG-Bis-40E9), luciferase assay on MM.1S [ratio]","Ratio of EC50 (relative to ATG-Bis-40E9), luciferase assay on MM.1S [ratio]"
B3,0.04,
B4,0.28,96.4
B5,0.71,10.2
B6,1.38,18

# Biological target: T1, GPRC5D on MM.1S cells
# Assay: cell-based or functional assay
# Remark: another data set of the same source
Binder,"EC50, Jurkat-NFAT-Luciferase assay in the presence of MM.1S cells [nM]","Top RLU, Jurkat-NFAT-Luciferase assay in the presence of MM.1S cells [RLU]"
B1,0.25,334
B2,0.32,406

# Biological target: T2, GPRC5D on multiple myeloma cells (human, UniProt Q9NZD1 1-345)
# T2 construct: whole, on cells; Endogenous GPRC5D on multiple myeloma cell lines; also called G-protein coupled receptor family C group 5 member D; MM.1S, MOLP-8, L363, RPMI8226 cells
# Assay: FACS on MM.1S cells
# T2 sequence (Q9NZD1 whole entry): as above
row,Binder,binding result
1,B7,binds
2,B8,binds
3,B9,binds
4,B10,binds
5,B11,binds
6,B12,binds
7,B13,binds

# Biological target: T1, GPRC5D on MM.1S cells
# Assay: FACS on MM.1S cells
# Remark: another data set of the same source
# Experimental: The binding affinities of the generated humanized Fab-scFv-Fab bispecific antibodies were determined by FACS analysis. […] (a) Jurkat cells were washed by Staining Buffer (PBS+1% BSA) in round bottom 96-well plate. [0833] (b) Antibody dilutions and cells were added to each well, incubated at 4 degrees for 1 hour. [0834] (c) Cells were spined down at 300 g for 3 minutes, and the supernatants were discarded. [0835] (d) Cells were washed with Staining Buffer. […] (e) Step (d) was repeated and the cells were incubated for 0.5 hours at 4 degrees with secondary antibody in Staining Buffer. [0837] (f) After incubation, step (d)-(e) were repeated. […] (g) Staining Buffer was added and fluorescence signals were recorded by flow cytometry.
# The binding affinities of the generated humanized Fab-scFv-Fab bispecific antibodies were determined by FACS analysis. The ATG-Bis-40E9 was used as positive control and hIgG1 isotype was used as negative control. The protocol for FACS analysis is identical to that described in Example 3.2, except that MM.1S cells were used in this example.
Binder,EC50 [nM],Top signal [MFI]
B1,1.5,2030
B2,1.76,2050

# Biological target: T3, CD3 on T cells / Jurkat cells (human, UniProt P07766 23-207; P04234 22-171; P09693 23-182)
# T3 construct: whole, on cells; Native CD3 complex on CD3+ T cells isolated from normal donors or on Jurkat cells; also called human CD3; CD3+ T cells
# Assay: FACS on Jurkat cells
# T3 sequence (P07766 23-207, chain 1 of 3): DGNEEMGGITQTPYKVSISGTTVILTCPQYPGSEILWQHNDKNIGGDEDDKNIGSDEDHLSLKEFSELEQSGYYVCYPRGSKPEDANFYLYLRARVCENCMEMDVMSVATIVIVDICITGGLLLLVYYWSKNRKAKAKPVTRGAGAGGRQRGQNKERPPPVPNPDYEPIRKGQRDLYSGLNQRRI
# T3 sequence (P04234 22-171, chain 2 of 3): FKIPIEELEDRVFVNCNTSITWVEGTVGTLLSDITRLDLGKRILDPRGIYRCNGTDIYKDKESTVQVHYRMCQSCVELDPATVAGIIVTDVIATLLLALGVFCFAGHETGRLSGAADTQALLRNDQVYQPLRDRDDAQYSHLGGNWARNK
# T3 sequence (P09693 23-182, chain 3 of 3): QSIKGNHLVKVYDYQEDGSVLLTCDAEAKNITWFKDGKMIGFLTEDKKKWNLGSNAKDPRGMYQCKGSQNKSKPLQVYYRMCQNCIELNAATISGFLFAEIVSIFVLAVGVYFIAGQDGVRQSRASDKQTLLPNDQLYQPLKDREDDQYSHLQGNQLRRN
row,Binder,binding result
1,B7,binds
2,B8,binds
3,B9,binds
4,B10,binds
5,B11,binds
6,B12,binds
7,B13,binds

# Biological target: T1, GPRC5D on MM.1S cells
# Assay: cell-based or functional assay
# Remark: another data set of the same source
Binder,"Ratio of Top cytotoxicity (relative to ATG-Bis-40E9), MM.1S cytotoxicity [ratio]","Ratio of IC50 (relative to ATG-Bis-40E9), MM.1S cytotoxicity [ratio]"
B3,0.06,
B4,0.87,87.7
B5,0.96,18.4
B6,0.99,9.82
